Experimental data reported in the RNAGym collection of RNA variant scans (doi:10.1073/pnas.2313332121).

B1: TPR t1 (parent)
chain: GACCAAUCUGCCCUCAGAGCUCGAGAACAUCUUCGGAUGCAGAGGAGGCAGGCUUCGGUGGCGCGAUAGCGCCAACGUCCUCAACCUCCAAUGCAUCCCACCACAUGAUGAUGCCUGAAGAGCCUUGGUUUUUUG

Variants of: B1
Assay: polymerase ribozyme fitness, log enrichment relative to wild type (log ratio); higher = more active; in vitro selection for triplet polymerase activity
How it was run: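 In triplicate, a single round of in vitro selection was run on each mutant library, PCR-built and transcribed, covering one subunit of a heterodimeric triplet polymerase ribozyme. Frozen incubation at −7 °C followed annealing with a biotinylated primer, partner subunit and triplets, and extended constructs were then gel-excised, streptavidin-captured and taken through RT-PCR. Fitness is the logarithm of genotype enrichment over wild-type enrichment, from inverse-variance-weighted replicate averages of Illumina-sequenced inputs and outputs. […] only genotypes with ≥10 input reads and ≥1 read per output were kept.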

Variant	polymerase ribozyme fitness (log ratio)
GACCAAUCUGCCCUCAGAGCUCGAGAACAUCUUCGGAUGGAGAGGAGGCAGGCUUCGGUGGCGCGAUAGCGCCAACGUCCUCAACCGCCAAUGCAUCCCACCACAUGAUGAUGCCUGAAGAGCCUUGGUUUUUUG	-1.6
GACCAAUCUGCCCUCAGAGCUCGAGAACAUCUUCGGAUGUAGAGGUGGCAGGCUUCGGUGGCGCGAUAGCGCCAACGUCCUCAACCUCCAAUGCAUCCCUCCACAUGAUGAUGCCUGAAGAGCCUUGGUUUUUUG	-3.37
GACCAAUCUGCCCUCAGAGCUCGAGAACAUCUUCGGAUGGAGAGGAGGCAGGCUUCCGUGGCGCGAUAGCGCCAACGUUCUCAACCUCCAAUUCAUCCCACCACAUGAUGAUGCCUCAAGAGACUUGGUUUUUUG	-4.88
GACCAAUCUGCCCUCAGAGCUCGAGAACAUCUUCGGAUGGAGAGGAGGCAGGCUUCGGUGGCGCGAUAGCGCCAACGUCCUCAACCUCCAAGGCAUCCCACCACAUGAUGAUGCCUGAAAAGCCUUGGUUUUUUG	-2.62
GACCAAUCUGCCCUCAGAGCUCGAGAACAUCUUCGGAUGUAGAGGUGGCAGACUUCGGUGGCGCGAUAGUGCCAACGUCCUCAACCUCCAAUGCAUCCCACCACAUGAUGAUGCCUGAAGAGCCUUGGUUUUUUG	-3.49
GACCAAUCUGCCCUCAGAGCUCGAGAACAUCUUCGGAUGGAGAGGAGGCAGGCUUCGGUGUCGCGAUAGCGCCAACGUCCUCAACCUCCAUUGCAUCCCACCAUAUGAUGAUGCCUGAAGAGCCUUGGUUUUUUG	-3.37
GACCAAUCUGCCCUCAGAGCUCGAGAACAUCUUCGGAUGGAGAGGAGGCAGGCUUCGGUGGCGCGAUAGCGCCAACGUCCUCAACCUCCAAUGCAUCCCACCACAUGAUGACGCCUGAAGAGCCUUGGUUUUUUG	0.984
GACCAAUCUGCCCUCAGAGCUCGAGAACAUCUUCGGAUGGAGAGGAGGCAGGCUUCGAUGGCGCGAUAGCGCCAACGUCCUCAACCUCCAAUGCAUCCCACCACAUUAUGAAGCCUGAAGAUCCUUGGUUUUUUG	-5.89
GACCAAUCUGCCCUCAGAGCUCGAGAACAUCUUCGGAUGGAGAGGAGGCAGGCUUCGGUGGCGCGAUACCGUCAACGUCCUCAACCUCAAAUGCAUCCCACCACAUGAUGAUGCCUGAAGAGCCUUGGUUUUUUG	-3.57
GACCAAUCUGCCCUCAGAGCUCGAGAACAUCUUCGGAUGUCGAGGAGGCAGGCUUCGGUGGCGCGAUAGCGCCAACGUACUCAACCUCCAAAGCAUCCCACCACAUGAUGAUGCCUGAAGAGCCUUGGUUUUUUG	-5.35
GACCAAUCUGCCCUCAGAGCUCGAGAACAUCUUCGGAUGGAGAGGAGGCAGGCUUCGGUGGCGCGAUAGCGCCAACGUCCUCAACCUCCAAUGCAUCCCACCACAUGAUGAUGCCUGAAGAGCCUUGGUUUUGUG	-0.607
GACCAAUCUGCCCUCAGAGCUCGAGAACAUCUUCGGAUGUAGAGGAGGCGGGCUUCGGUGGCGCGAUAGCGCCAACGUCCUCAACCUCCAAUGCAUCCCACCACAUGAUGAUGCCUGAAGAGCCUUGGUCUUUUG	-0.13
GACCAAUCUGCCCUCAGAGCUCGAGAACAUCUUCGGAUGUAGAGGAGGCAGGCUUCGGUGGCGCGAUAGCGCCCACUUCCUCAACCUCCAAUGUAUCCCACCACAUGAUGAUGGCUGAAGAGCCUUGGUUUUUUG	-2.59
GACCAAUCUGCCCUCAGAGCUCGAGAACAUCUUCGGAUGGAGAGGAGGCAGGCUUCGGUGACGCGAUAGCGCCAACGUCCUCAACCUCCAAUGCAUCCCACCACAUGAUGAUGCCUGAAAAGCCUUGGUUUUUUG	0.253
GACCAAUCUGCCCUCAGAGCUCGAGAACAUCUUCGGAUGUAGGGGAGGCAGGCUUCGGUGGCGCGAUAGCGCCAACGUCCUCAACCUCCAAUGCAUCCCACCACAUGAUGAUGCCUGAAGAGCCUUGGUAUUUUG	-3.26
GACCAAUCUGCCCUCAGAGCUCGAGAACAUCUUCGGAUGUUGAGGAGGCAGGCUUCGGUGGCGCGAUAGCGUCAACGUCCUCAACCUCCAAUGCAUCCCACCACAUGAUGAUGCCUGAAGAGCCUUGGUUUUUUG	-1.91
GACCAAUCUGCCCUCAGAGCUCGAGAACAUCUUCGGAUGGAGAGGAGGCAGGCUGCGGUGGUGCGAUAGCGCCAACGGCCUCAACCUCCAAUGCAUCCCACCACAUGAUGAUGCCUGAAGAGCCUUGGUUUUUUG	-2.04
GACCAAUCUGCCCUCAGAGCUCGAGAACAUCUUCGGAUGGAGAGGAGGCAGGCUUCGGUGGCGCGAUAGCUCCAACGUCCUCAACCUCCAAUGCAUCCCACCACAUGAUGAUGCCUGAAGAGCCUUGGUUUUUUG	-1.23
GACCAAUCUGCCCUCAGAGCUCGAGAACAUCUUCGGAUGGAGAGGAGGCAGGCUUCGGUGGCGCGAUAGCGCCAACGUCCACAACCUCCAAUGCAUCCCACCACAUGAUGAUGCCUGAAGAGCCUUGGUUUUUUG	-2.17
GACCAAUCUGCCCUCAGAGCUCGAGAACAUCUUCGGAUGGAGAGGAGGCAGGCUUCGGUGGCGCGAUAGCUCCAACGUCCUCAACCUCCAAUGCAUCCCACCACAUGAUGAUGCCUAAAGAGCCUUGGUUUUUUG	-2.71
GACCAAUCUGCCCUCAGAGCUCGAGAACAUCUUCGGAUGGAGAGGAGGCAGGCAUCGGUGCCGCGAUAGCGCCAACGUCCUCAACCUCCAAUGCAUCCCUCCACAUGAUGAUGCCUGAAGAGCCUUGGUUUUUUG	-4.7
